The values that follow come from PMC8307404, “Crystal Structure-Guided Design of Bisubstrate Inhibitors and Photoluminescent Probes for Protein Kinases of the PIM Family” (Molecules, 2021).

The target in one data set is PIM3 (Homo sapiens, UniProt Q86V86). Briefly: Binding/displacement assay with FA or TGLI readout. Set-up: made in house. Particulars: mean ± SEM, N = 2.
Another data set has as its target PIM1 (Homo sapiens, UniProt P11309). Briefly: Binding/displacement assay with FA or TGLI readout. Set-up: made in house. Conditions: KD, nM (PIM-1), TGLI or FA readout; mean ± SEM, N = 2.
A further data set deals with PIM2 (Homo sapiens, UniProt Q9P1W9). Briefly: Binding/displacement assay with FA or TGLI readout. Set-up: made in house. Conditions: mean ± SEM, N = 2.
A further data set addresses T1, PKAcα (Homo sapiens, UniProt P17612).
T1 construct: purchased Biaffin GmbH & Co KG (Kassel, Germany)
Briefly: Binding/displacement assay with FA or TGLI readout. The method, then: The affinities of the compounds toward the PIM family PKs were determined in a binding/displacement assay with measurement of fluorescence anisotropy (FA) and time-gated luminescence intensity (TGLI) (Table 2). For the initial assessment of the selectivity of compounds, PKAcα was used as the reference basophilic kinase.
Optical FA measurement modules for 5-TAMRA-labeled compounds (ex. 540(20) nm, em. 590(20) nm and 590(20) nm), for Cy5-labeled compounds (ex. 590(50) nm, em. 675(50) nm and 675(50) nm), and optical TGLI measurement modules for ARC-1451 (ex. 330(60) nm, em. 590(50) nm), for ARC-1188 (ex. 330(60) nm, em. 675(50) nm) were used for assays with PHERAstar microplate reader (BMG Labtech; Ortenberg, Germany). TGLI measurements were performed with a delay time of 50 μs and integration of the signal for 150 μs. In each measurement, emission from 200 flashes of excitation radiation was collected. The measurement solutions (20 µL volumes) were prepared in black 384-well low-binding surface microtiter plates (Corning #4514; Kennebunk, ME, USA) and incubated for 20 min at 30 °C before the measurements. The assay buffer contained HEPES hemisodium salt (pH 7.4, 50 mM), NaCl (150 mM), dithiothreitol (5 mM), bovine serum albumin (0.5 mg/mL), and Tween-20 (0.005%). GraphPad Prism v. 5.04 (GraphPad Software, Inc.) was used for data analysis with FA [32] or TGLI [33] readouts. Representative titration curves can be found in Supplementary Figure S7.

Another data set has as its system p38 MAPK. Briefly: Kinase profiling (radiometric filter-binding). The class given is biochemical, human. Conditions: 1 µM inhibitor. The method, then:
(§1) Kinase selectivity profiling was performed using the commercial service provided by the MRC PPU International Centre for Kinase Profiling (Dundee, UK) using a radiometric filter-binding assay. Kinases used for analysis were of human origin. The ATP concentration applied for inhibition measurements was at or below the ATP KM value of the particular PK. ARC-3125 and ARC-3126 were screened against 139 PKs, whereas compounds 1, 2, and 8 were screened against 140 PKs. The final total concentration of inhibitors in the selectivity panel was 1 µM. Residual activities were expressed as the percentage of retained activity compared to the control without inhibitor.

Another data set relates to AMPK. Briefly: Kinase profiling (radiometric filter-binding). The class given is biochemical, human. Particulars: 1 µM inhibitor. The method, then:
as §1

Another data set concerns the target SmMLCK (Homo sapiens, UniProt Q15746). Briefly: Kinase profiling (radiometric filter-binding). It is filed as biochemical. Conditions: 1 µM inhibitor, read-out: Residual activity, %. The method in brief: (§2)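 Each compound, at 1 µM final, is screened against human protein kinases in a radiometric filter-binding format. ATP is set at or under the KM of each kinase. Values give retained activity relative to a control lacking inhibitor.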

The target in data set [1] is PKC (Homo sapiens, UniProt P17252). Briefly: Kinase profiling (radiometric filter-binding). It is filed as biochemical. Particulars: first of two PKC lines (Greek letter lost), 1 µM inhibitor, read-out: Residual activity, %. Put shortly:
as §2

Data set [2] has as its target T2, PKC (Homo sapiens, UniProt Q05513).
T2 sequence (Q05513 1-592): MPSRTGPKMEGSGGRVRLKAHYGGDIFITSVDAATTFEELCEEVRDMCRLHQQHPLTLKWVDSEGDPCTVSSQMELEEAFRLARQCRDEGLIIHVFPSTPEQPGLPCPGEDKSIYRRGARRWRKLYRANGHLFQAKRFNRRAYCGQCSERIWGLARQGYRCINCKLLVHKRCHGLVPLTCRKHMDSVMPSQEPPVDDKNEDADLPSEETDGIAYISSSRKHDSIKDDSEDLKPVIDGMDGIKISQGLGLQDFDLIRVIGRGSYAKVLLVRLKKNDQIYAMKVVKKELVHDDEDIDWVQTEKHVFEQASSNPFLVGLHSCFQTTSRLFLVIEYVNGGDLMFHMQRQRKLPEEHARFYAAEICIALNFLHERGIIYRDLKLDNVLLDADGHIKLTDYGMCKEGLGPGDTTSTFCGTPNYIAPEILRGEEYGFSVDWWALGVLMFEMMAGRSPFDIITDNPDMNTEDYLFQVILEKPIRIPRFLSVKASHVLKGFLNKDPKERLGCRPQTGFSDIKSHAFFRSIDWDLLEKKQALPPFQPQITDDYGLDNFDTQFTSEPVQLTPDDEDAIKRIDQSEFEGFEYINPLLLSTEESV
Briefly: Kinase profiling (radiometric filter-binding). The class given is biochemical. Particulars: second of two PKC lines (Greek letter lost), 1 µM inhibitor, read-out: Residual activity, %. Put shortly:
as §2

In a further data set the target is T3, CHK1 (Homo sapiens, UniProt O14757).
T3 sequence (O14757 1-476): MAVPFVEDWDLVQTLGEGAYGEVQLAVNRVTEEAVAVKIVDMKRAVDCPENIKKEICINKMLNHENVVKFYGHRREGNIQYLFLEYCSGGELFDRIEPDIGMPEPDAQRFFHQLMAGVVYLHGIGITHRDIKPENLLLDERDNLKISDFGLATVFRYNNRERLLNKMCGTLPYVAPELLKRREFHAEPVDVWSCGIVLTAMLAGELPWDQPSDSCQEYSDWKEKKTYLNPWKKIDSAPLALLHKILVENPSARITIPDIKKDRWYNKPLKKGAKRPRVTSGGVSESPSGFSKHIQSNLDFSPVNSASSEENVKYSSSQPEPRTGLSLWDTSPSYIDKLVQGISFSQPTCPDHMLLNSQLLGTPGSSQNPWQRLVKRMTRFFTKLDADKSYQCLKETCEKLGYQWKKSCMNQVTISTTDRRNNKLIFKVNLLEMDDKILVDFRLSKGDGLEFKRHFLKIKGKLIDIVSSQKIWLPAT
Briefly: Kinase profiling (radiometric filter-binding). It is filed as biochemical. Conditions: CHK1, 1 µM inhibitor; read-out: Residual activity, %. The method in brief: as §2

Another data set has as its system PINK. Briefly: Kinase profiling (radiometric filter-binding). The class given is biochemical, human. Conditions: 1 µM inhibitor. The method, then:
as §1

Setting [3] is: TGLI or FA readout, mean ± SEM, N = 2, read-out: KD, nM (PKAcα).
Where [4] appears, read: fourth of four lines (Greek letter lost).
[5] abbreviates: third of four lines (Greek letter lost).

For orientation: Kd means the free concentration of one partner at which half of the binding sites on the other are occupied at equilibrium, for simple one-to-one binding.

The structures appear in SMILES notation. Read-outs that look alike come from different tables or passages of the source. Square brackets hold non-standard residues; d marks the D form. Peptide text beside a SMILES is read from it. * marks the point of attachment. X3 = O=C(CCCCCNCc1nc2c(sc3cc(Br)cnc32)c(=O)[nH]1)*

PIM1, sequence (P11309 whole entry): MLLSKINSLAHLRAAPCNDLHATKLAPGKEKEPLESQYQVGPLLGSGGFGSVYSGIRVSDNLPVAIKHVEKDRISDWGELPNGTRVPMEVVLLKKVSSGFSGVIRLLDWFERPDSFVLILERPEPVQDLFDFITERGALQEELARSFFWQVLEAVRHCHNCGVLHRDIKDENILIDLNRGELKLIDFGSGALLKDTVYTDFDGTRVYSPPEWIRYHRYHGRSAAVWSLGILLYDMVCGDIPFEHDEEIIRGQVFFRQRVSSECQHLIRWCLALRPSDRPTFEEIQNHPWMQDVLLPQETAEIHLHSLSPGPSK
SmMLCK, sequence (Q15746 923-1914): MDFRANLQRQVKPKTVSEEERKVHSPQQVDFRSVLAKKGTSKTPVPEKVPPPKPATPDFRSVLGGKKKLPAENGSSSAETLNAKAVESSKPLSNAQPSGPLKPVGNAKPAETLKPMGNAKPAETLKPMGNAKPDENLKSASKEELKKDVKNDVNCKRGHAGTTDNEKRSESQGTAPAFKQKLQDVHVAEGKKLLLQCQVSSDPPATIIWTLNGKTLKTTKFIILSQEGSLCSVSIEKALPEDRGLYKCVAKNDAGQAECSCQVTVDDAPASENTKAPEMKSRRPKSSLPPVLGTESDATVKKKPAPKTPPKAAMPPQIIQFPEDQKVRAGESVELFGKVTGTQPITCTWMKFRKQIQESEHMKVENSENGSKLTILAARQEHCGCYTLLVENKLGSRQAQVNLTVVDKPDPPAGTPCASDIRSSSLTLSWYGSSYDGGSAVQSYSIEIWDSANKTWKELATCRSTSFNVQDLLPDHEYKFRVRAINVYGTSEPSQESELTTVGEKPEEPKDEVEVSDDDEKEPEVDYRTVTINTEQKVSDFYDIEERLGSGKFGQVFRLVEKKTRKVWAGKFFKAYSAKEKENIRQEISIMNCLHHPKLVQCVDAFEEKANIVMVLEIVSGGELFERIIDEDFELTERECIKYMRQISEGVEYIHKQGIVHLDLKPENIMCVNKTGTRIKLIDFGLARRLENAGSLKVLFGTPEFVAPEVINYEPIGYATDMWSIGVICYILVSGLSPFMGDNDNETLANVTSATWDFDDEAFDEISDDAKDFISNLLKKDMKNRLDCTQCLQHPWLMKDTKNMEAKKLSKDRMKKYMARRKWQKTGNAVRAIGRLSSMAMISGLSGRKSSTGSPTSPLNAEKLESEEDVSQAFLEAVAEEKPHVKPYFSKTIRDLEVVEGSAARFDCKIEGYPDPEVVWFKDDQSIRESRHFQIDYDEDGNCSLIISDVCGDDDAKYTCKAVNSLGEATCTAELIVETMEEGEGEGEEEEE
PIM2, sequence (Q9P1W9 whole entry): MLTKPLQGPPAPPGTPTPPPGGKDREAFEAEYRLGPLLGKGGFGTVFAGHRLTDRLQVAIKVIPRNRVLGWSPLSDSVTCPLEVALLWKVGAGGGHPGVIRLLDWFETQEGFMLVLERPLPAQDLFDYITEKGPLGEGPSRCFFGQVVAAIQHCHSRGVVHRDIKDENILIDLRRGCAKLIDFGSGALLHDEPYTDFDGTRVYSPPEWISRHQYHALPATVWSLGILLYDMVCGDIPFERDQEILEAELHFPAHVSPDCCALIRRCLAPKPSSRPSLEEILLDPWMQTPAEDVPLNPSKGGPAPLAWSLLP
Protocol for PIM1: (§3) The affinities of the compounds toward the PIM family PKs were determined in a binding/displacement assay with measurement of fluorescence anisotropy (FA) and time-gated luminescence intensity (TGLI) (Table 2). For the initial assessment of the selectivity of compounds, PKAcα was used as the reference basophilic kinase [10].
(§4) Optical FA measurement modules for 5-TAMRA-labeled compounds (ex. 540(20) nm, em. 590(20) nm and 590(20) nm), for Cy5-labeled compounds (ex. 590(50) nm, em. 675(50) nm and 675(50) nm), and optical TGLI measurement modules for ARC-1451 (ex. 330(60) nm, em. 590(50) nm), for ARC-1188 (ex. 330(60) nm, em. 675(50) nm) were used for assays with PHERAstar microplate reader (BMG Labtech; Ortenberg, Germany). TGLI measurements were performed with a delay time of 50 μs and integration of the signal for 150 μs. In each measurement, emission from 200 flashes of excitation radiation was collected. The measurement solutions (20 µL volumes) were prepared in black 384-well low-binding surface microtiter plates (Corning #4514; Kennebunk, ME, USA) and incubated for 20 min at 30 °C before the measurements. The assay buffer contained HEPES hemisodium salt (pH 7.4, 50 mM), NaCl (150 mM), dithiothreitol (5 mM), bovine serum albumin (0.5 mg/mL), and Tween-20 (0.005%). […] 5.04 (GraphPad Software, Inc.) was used for data analysis with FA [32] or TGLI [33] readouts.
Protocol for PIM2: as §3, §4
Protocol for PIM3: as §3, §4

For the molecule `N=C(N)NCCC[C@@H](NC(=O)CCCCCNCc1nc2c(sc3cc(Br)cnc32)c(=O)[nH]1)C(=O)N[C@H](CCCNC(=N)N)C(=O)N[C@H](CCCNC(=N)N)C(=O)N[C@H](CCCNC(=N)N)C(=O)N[C@H](CCCNC(=N)N)C(=O)N[C@H](CCCNC(=N)N)C(=O)N[C@H](CCCCN)C(N)=O` [ARC-3126, BPTP-Ahx-(D-Arg)6-D-Lys-NH2] (X3-[dR][dR][dR][dR][dR][dR][dK]-NH2), the dissociation constant (Kd) at PIM3 was 2 ± 0.5 nM; at PIM1, 1.8 ± 0.7 nM; on PIM2, 2.9 ± 0.5 nM; at PKAcα (setting [3]) it was above 18500 nM; at PKAcα (read-out: KD toward PKAcα), above 18000 nM. Also, the results for the “Residual activity, %” value in the data set on p38 MAPK (setting [4]), in the data set with p38 MAPK (setting [5]) and in the data set on AMPK were 129 ± 10%, 111 ± 4% and 38 ± 4%, respectively. The remaining activity at 1 µM with SmMLCK was determined as 116 ± 39%; in the data set with PKC [1], 115 ± 17%; with PKC [2], 92 ± 4%; with CHK1, 100 ± 6%.
Turning to `CN(C)c1ccc2c(c1)Oc1cc(N(C)C)ccc1C21OC(=O)c2cc(C(=O)NCCCC[C@@H](NC(=O)[C@@H](CCCNC(=N)N)NC(=O)CNC(=O)[C@@H](CCCNC(=N)N)NC(=O)[C@@H](CCCNC(=N)N)NC(=O)CCCCc3cn(Cc4nc5c(sc6ccc(Br)cc65)c(=O)[nH]4)nn3)C(N)=O)ccc21` [Compound 8, BBTP-Tap-(D-Arg)2-Gly-D-Arg-[D-Lys(5-TAMRA)]-NH2], the Kd on PIM3 was 15.7 ± 3 nM; on PIM1, 20.5 ± 4 nM; on PIM2, 157 ± 39 nM; at PKAcα (setting [3]) it was above 1020 nM.
Regarding `N=C(N)NCCC[C@@H](NC(=O)CNC(=O)[C@@H](CCCNC(=N)N)NC(=O)[C@@H](CCCNC(=N)N)NC(=O)CCCCCCCNCc1nc2c(sc3ccc(Br)cc32)c(=O)[nH]1)C(=O)N[C@H](CCCCN)C(N)=O` [Compound 2, BBTP-Aoc-(D-Arg)2-Gly-D-Arg-D-Lys-NH2], the equilibrium dissociation constant (Kd) on PIM3 turned out to be 2 ± 0.4 nM; on PIM1, 0.4 ± 0.1 nM; on PIM2 it was 3.8 ± 0.2 nM; at PKAcα (setting [3]) it was 853 ± 28 nM. For the same molecule, the “Residual activity, %” value with p38 MAPK (setting [4]) stood at 115 ± 0%; in the data set with p38 MAPK (setting [5]) it was 117 ± 1%; in the data set with AMPK, 91 ± 4%; in the data set on PINK, 121 ± 17%. In addition, the remaining activity at 1 µM turned out to be 98 ± 9% with SmMLCK, 102 ± 4% with PKC [1], 118 ± 11% with PKC [2] and 112 ± 6% with CHK1.
Consider `N=C(N)NCCC[C@@H](NC(=O)CNC(=O)[C@@H](CCCNC(=N)N)NC(=O)[C@@H](CCCNC(=N)N)NC(=O)Cn1cc(CNCc2nc3c(sc4ccc(Br)cc43)c(=O)[nH]2)nn1)C(=O)N[C@H](CCCCN)C(N)=O` [Compound 3, BBTP-Amt-(D-Arg)2-Gly-D-Arg-D-Lys-NH2], for which the Kd is 7 ± 1 nM on PIM3, 0.7 ± 0.2 nM at PIM1, 9.9 ± 0.8 nM at PIM2 and 1500 ± 266 nM at PKAcα (setting [3]). Moreover, the “Residual activity, %” value in the data set on p38 MAPK (setting [4]) was 111 ± 1%; with p38 MAPK (setting [5]) it was 108 ± 8%; in the data set with AMPK it was 47 ± 6%; with PINK it was 92 ± 0%. In addition, the remaining activity at 1 µM came to 94% with SmMLCK, 110 ± 5% with PKC [1], 89 ± 2% with PKC [2] and 104 ± 2% with CHK1.
Turning to `N=C(N)NCCC[C@@H](NC(=O)CCCCCNC(=O)Cn1cnc2c(I)c(I)c(I)c(I)c21)C(=O)N[C@H](CCCNC(=N)N)C(=O)N[C@H](CCCNC(=N)N)C(=O)N[C@H](CCCNC(=N)N)C(=O)N[C@H](CCCNC(=N)N)C(=O)N[C@H](CCCNC(=N)N)C(=O)N[C@H](CCCCN)C(N)=O` [ARC-3125, TIBI-CH2-C(=O)-Ahx-(D-Arg)6-D-Lys-NH2], the remaining activity at 1 µM with SmMLCK came to 66 ± 1%; in the data set with PKC [1], 81 ± 9%; in the data set with PKC [2], 14 ± 1%; with CHK1, 76 ± 1%.
With `N=C(N)NCCC[C@@H](NC(=O)CNC(=O)[C@@H](CCCNC(=N)N)NC(=O)[C@@H](CCCNC(=N)N)NC(=O)CCCCCCCNCc1nc2c(sc3cc(Br)cnc32)c(=O)[nH]1)C(=O)N[C@H](CCCCN)C(N)=O` [Compound 1, BPTP-Aoc-(D-Arg)2-Gly-D-Arg-D-Lys-NH2], the Kd stood at 5.2 ± 1 nM at PIM3, 11.4 ± 1 nM at PIM1, 64 ± 8 nM on PIM2 and 2250 ± 411 nM on PKAcα (setting [3]). For the same molecule, the “Residual activity, %” value with p38 MAPK (setting [4]) is reported as 116 ± 6%; in the data set on p38 MAPK (setting [5]) it was 109 ± 7%; in the data set with AMPK, 92 ± 9%; with PINK it was 116 ± 5%. In addition, the remaining activity at 1 µM with SmMLCK was determined as 98 ± 5%; with PKC [1], 112 ± 2%; with PKC [2], 95 ± 6%; with CHK1, 122 ± 17%.
